In patent US20240293499A1 (SUNNYBROOK RESEARCH INSTITUTE, published 2024):

Experiments:
[1] = molecular target: T1, murine VISTA (mVISTA), recombinant; form not stated (mouse, UniProt Q9D659 33-191, limits assumed); test: SPR single-cycle kinetics (FIG. 8)
T1 construct: The SPR method names only hVISTA-Fc as analyte for the nanobodies; also called mouse VISTA
T1 sequence (looked up): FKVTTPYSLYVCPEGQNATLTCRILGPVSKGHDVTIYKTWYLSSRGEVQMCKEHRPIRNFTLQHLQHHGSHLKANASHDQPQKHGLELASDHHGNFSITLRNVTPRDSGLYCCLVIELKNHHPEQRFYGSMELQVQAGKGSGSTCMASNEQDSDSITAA

[2] = molecular target: T2, human VISTA on primary human immune cells (CD14+CD16- classical monocytes of PBMCs) (human, UniProt Q9H7M9 33-311); test: flow cytometry on human PBMC, gate CD14+CD16- monocytes, ΔMFI against control, 5 donors
T2 construct: whole, on cells; Native protein on donor cells; also called hVISTA
T2 sequence (looked up): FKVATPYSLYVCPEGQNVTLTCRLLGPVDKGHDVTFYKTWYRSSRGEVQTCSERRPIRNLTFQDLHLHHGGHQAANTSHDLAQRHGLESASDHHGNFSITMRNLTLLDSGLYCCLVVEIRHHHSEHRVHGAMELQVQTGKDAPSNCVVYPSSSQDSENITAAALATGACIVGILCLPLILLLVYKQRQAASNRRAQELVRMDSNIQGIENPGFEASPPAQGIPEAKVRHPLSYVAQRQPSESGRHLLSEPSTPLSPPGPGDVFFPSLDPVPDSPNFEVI
Procedure: PBMCs had their Fc receptors blocked with Human TruStain FcX (422301; BioLegend) then incubated with 2.5 μg of mAb, mouse IgG1 (401408; BioLegend), or rat IgG2a (400565; BioLegend) or 15 μg Nb for 1 hour at 4° C. After washing with PBS, the PBMCs were incubated with secondary antibodies (1 μL; FITC anti-mouse IgG1, FITC anti-HA, or FITC anti-rat IgG2a; 406605, 901507, or MRG2a-83; BioLegend) or control FITC anti-VISTA antibodies (clone B7H5DS8; 11-1088-42; eBioscience) for 40 minutes at 4° C. A staining cocktail consisting of PE/Cy5 anti-CD11b (101210; BioLegend), APC/Cy7 anti-CD14 (325620; BioLegend), Alexa Flour 700 anti-CD16 (302026; BioLegend), PE/Cy7 anti-CD4 (317414; BioLegend), and Alexa Flour 647 anti-CD8 (301022; BioLegend) was then added to the PBMCs and incubated for 20 minutes at 4° C. Finally, the PBMCs were washed and resuspended in 3 μM DAPI (D1306; Thermo Fisher Scientific) and cytometric profiles recorded using a BD LSR II flow cytometer (BD) maintained by The Centre for Flow Cytometry & Scanning Microscopy (CCSM) at Sunnybrook Research Institute (SRI; Sunnybrook Health Sciences Centre, Toronto, ON, Canada). The same protocol was performed on murine splenocytes to measure the binding of rat anti-hmVISTA mAbs to murine immune cells.

[3] = molecular target: T3, hVISTA-Fc (produced in house) (human, UniProt Q9H7M9 33-194, limits assumed); test: SPR (BIAcore T200), single-cycle kinetics, Nb captured on anti-His chip, hVISTA-Fc injected at 1.9, 3.8, 7.5, 15, 30 nM, 1:1 fit
T3 construct: Analyte in the SPR of the nanobodies; not shown: Fc
T3 sequence (looked up): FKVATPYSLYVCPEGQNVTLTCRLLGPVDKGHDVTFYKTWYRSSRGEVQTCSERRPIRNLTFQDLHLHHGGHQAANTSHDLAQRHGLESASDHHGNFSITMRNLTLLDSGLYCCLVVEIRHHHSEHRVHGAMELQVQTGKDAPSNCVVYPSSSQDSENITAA
Procedure: Binding kinetics of mAbs and Nbs to hVISTA and mVISTA were obtained by surface plasmon resonance (SPR) using a BIAcore T200 (Cytiva) and HBS running buffer (20 mM of HEPES pH 7.4, 150 mM NaCl, 0.005% Tween-20, 3.4 mM EDTA). Briefly, anti-histidine antibodies were immobilized on a CM5 chip (29149604; Cytiva) using the His capture kit (28995056; Cytiva) following manufacture's protocol. For mAbs, VISTA was captured by flowing […] of hVISTA-COMP-his or mVISTA-COMP-his at a flow rate of 30 μL/min. Sensorgrams were collected using single-cycle kinetics covering five mAb concentrations (1:2 serial dilutions). For Nbs, solutions of each nanobody ([…]) were flown over an anti-histidine-coated chip. Five concentrations (1:2 serial dilutions) of hVISTA-Fc (produced in house) were then injected at a flow rate of 30 μL/min. KD, Kₒₙ, and Koff were calculated by analyzing the sensorgrams with a 1:1 Langmuir binding model²³ after subtracting reference sensorgrams.

B1: anti-hVISTA nanobody hVISTANb7 (VHH)
VHH: QVQLQESGGGLVYPGGSLRLSCTASGFAFTNAYMNWVRQAPGKGAEWVSGITRDSNRTSYADSVKGRFTISRDNAKNTLYLQMDSLKSDDTALYYCNAEPSGWWLDDDYWGQGTQVTVSS
notes: Llama nanobody made in E. coli WK6; not shown: HA tag and His tag (pMECS vector; purified on a His-Trap column, detected with anti-HA)
- binding result [1]: no binding
- binding result [2]: binds
- Kd [3]: 7.5 nM
